Test results reported in US20210246166A1 (Bayer, published 2021).
Numbered stars: 1 amine (or outer) side, 2 acyl side, 3 side chain; on linkers, the order of the positions; unused ones are H or OH. Bridge positions count the residues as written; N and C are the ends. Square brackets hold non-standard residues; d marks the D form. Ends that are not written are not given here. NH(CH2CH2O)5CH2CO = O=C(COCCOCCOCCOCCOCCN[*:1])[*:2]; Pro(3S,4R-methano) = O=C(O)[C@H]1NC[C@@H]2C[C@@H]21; Phe(3-COOH) = N[C@@H](Cc1cccc(C(=O)O)c1)C(=O)O; Oic = O=C(O)[C@@H]1C[C@@H]2CCCC[C@@H]2N1; tBuAla = CC(C)(C)C[C@H](N)C(=O)O; Cba = N[C@@H](CC1CCC1)C(=O)O; Pen = CC(C)(S)[C@H](N)C(=O)O; NMeC = CN[C@@H](CS)C(=O)O; PEG3 = NCCOCCOCCOCCC(=O)O; Orn = NCCC[C@H](N)C(=O)O; PEG2 = NCCOCCOCCC(=O)O; Sar = CNCC(=O)O

What was measured:
[1] = molecular target: T1, recombinant human MASP1 active protease (amino acids 297-699, C-terminal His Tag) (human, UniProt P48740 297-699); assay: cell-based or functional assay
T1 sequence: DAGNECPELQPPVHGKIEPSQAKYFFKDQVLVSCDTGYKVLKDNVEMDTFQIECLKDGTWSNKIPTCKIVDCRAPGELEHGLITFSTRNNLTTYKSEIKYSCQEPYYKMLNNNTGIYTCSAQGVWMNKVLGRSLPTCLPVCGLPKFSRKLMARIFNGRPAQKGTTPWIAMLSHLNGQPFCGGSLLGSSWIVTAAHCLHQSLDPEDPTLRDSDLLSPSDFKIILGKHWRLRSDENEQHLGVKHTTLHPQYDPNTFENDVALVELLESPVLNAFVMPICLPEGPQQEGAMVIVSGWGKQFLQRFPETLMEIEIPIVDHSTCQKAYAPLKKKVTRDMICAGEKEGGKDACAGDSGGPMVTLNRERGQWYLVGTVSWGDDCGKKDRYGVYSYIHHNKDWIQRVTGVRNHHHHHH

[2] = molecular target: recombinant human MASP2 active protease (amino acids 297-686, C-terminal His Tag) (human, UniProt O00187 297-686); assay: cell-based or functional assay
recombinant human MASP2 active protease (amino acids 297-686, C-terminal His Tag), sequence (O00187 other isoform, or with tags, fused parts or gaps limits assumed): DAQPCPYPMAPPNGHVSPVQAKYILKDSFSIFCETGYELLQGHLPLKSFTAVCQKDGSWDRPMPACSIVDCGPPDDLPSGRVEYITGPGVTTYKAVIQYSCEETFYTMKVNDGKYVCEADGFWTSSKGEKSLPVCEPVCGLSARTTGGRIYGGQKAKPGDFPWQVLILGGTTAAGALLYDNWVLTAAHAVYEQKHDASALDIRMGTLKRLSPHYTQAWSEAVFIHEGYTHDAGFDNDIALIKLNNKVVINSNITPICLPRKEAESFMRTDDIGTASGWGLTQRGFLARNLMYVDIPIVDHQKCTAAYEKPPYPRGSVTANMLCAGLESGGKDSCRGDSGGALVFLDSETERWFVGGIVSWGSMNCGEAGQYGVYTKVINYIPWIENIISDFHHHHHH

B1: ((N-Me)G)-IC+SRS-((tBu)A)-PPI-(Pen)+IP-((3-Carboxy)F)-NH2 (peptide)
peptide: [Sar]ICSRS[tBuAla]PPI[Pen]IP[Phe(3-COOH)]-NH2
modifications: disulfide 3-11; N-terminus assumed
SMILES: CC[C@H](C)[C@H](NC(=O)CNC)C(=O)N[C@H]1CSSC(C)(C)[C@@H](C(=O)N[C@H](C(=O)N2CCC[C@H]2C(=O)N[C@@H](Cc2cccc(C(=O)O)c2)C(N)=O)[C@@H](C)CC)NC(=O)[C@H]([C@@H](C)CC)NC(=O)[C@@H]2CCCN2C(=O)[C@@H]2CCCN2C(=O)[C@H](CC(C)(C)C)NC(=O)[C@H](CO)NC(=O)[C@H](CCCNC(=N)N)NC(=O)[C@H](CO)NC1=O
human MASP1 IC50 [1]: 2 nM
human MASP2 IC50 [2]: 42 nM

B2: TIC+SRS-((tBu)A)-PPI-((N-Me)C)+I-NH2 (peptide)
peptide: TICSRS[tBuAla]PPI[NMeC]I-NH2
modifications: disulfide 3-11; N-terminus assumed
SMILES: CC[C@H](C)[C@H](NC(=O)[C@@H]1CSSC[C@H](NC(=O)[C@@H](NC(=O)[C@@H](N)[C@@H](C)O)[C@@H](C)CC)C(=O)N[C@@H](CO)C(=O)N[C@@H](CCCNC(=N)N)C(=O)N[C@@H](CO)C(=O)N[C@@H](CC(C)(C)C)C(=O)N2CCC[C@H]2C(=O)N2CCC[C@H]2C(=O)N[C@@H]([C@@H](C)CC)C(=O)N1C)C(N)=O
human MASP1 IC50 [1]: 2 nM
human MASP2 IC50 [2]: 80 nM

B3: ((N-Me)G)-IC+SRS-((tBu)A)-PPI-(Pen)+IP-(PEG5-CH2CO2H (18 atoms))-NH2 (peptide)
peptide: [Sar]ICSRS[tBuAla]PPI[Pen]IP[NH(CH2CH2O)5CH2CO]-NH2
modifications: disulfide 3-11; N-terminus assumed
SMILES: CC[C@H](C)[C@H](NC(=O)CNC)C(=O)N[C@H]1CSSC(C)(C)[C@@H](C(=O)N[C@H](C(=O)N2CCC[C@H]2C(=O)NCCOCCOCCOCCOCCOCC(N)=O)[C@@H](C)CC)NC(=O)[C@H]([C@@H](C)CC)NC(=O)[C@@H]2CCCN2C(=O)[C@@H]2CCCN2C(=O)[C@H](CC(C)(C)C)NC(=O)[C@H](CO)NC(=O)[C@H](CCCNC(=N)N)NC(=O)[C@H](CO)NC1=O
human MASP1 IC50 [1]: 2 nM
human MASP2 IC50 [2]: 42 nM

B4: VIC+SRS-((tBu)A)-PPI-(Pen)+IPD-NH2 (peptide)
peptide: VICSRS[tBuAla]PPI[Pen]IPD-NH2
modifications: disulfide 3-11; N-terminus assumed
SMILES: CC[C@H](C)[C@H](NC(=O)[C@@H](N)C(C)C)C(=O)N[C@H]1CSSC(C)(C)[C@@H](C(=O)N[C@H](C(=O)N2CCC[C@H]2C(=O)N[C@@H](CC(=O)O)C(N)=O)[C@@H](C)CC)NC(=O)[C@H]([C@@H](C)CC)NC(=O)[C@@H]2CCCN2C(=O)[C@@H]2CCCN2C(=O)[C@H](CC(C)(C)C)NC(=O)[C@H](CO)NC(=O)[C@H](CCCNC(=N)N)NC(=O)[C@H](CO)NC1=O
human MASP1 IC50 [1]: 2 nM
human MASP2 IC50 [2]: 73 nM

B5: AIC+SRSLP-(Oic)-I-(Pen)+I-NH2 (peptide)
peptide: AICSRSLP[Oic]I[Pen]I-NH2
modifications: disulfide 3-11; N-terminus assumed
SMILES: CC[C@H](C)[C@H](NC(=O)[C@H]1NC(=O)[C@H]([C@@H](C)CC)NC(=O)[C@@H]2C[C@@H]3CCCC[C@@H]3N2C(=O)[C@@H]2CCCN2C(=O)[C@H](CC(C)C)NC(=O)[C@H](CO)NC(=O)[C@H](CCCNC(=N)N)NC(=O)[C@H](CO)NC(=O)[C@@H](NC(=O)[C@@H](NC(=O)[C@H](C)N)[C@@H](C)CC)CSSC1(C)C)C(N)=O
human MASP1 IC50 [1]: 2.1 nM
human MASP2 IC50 [2]: 98 nM

B6: A-(Cba)-C+SRS-((tBu)A)-PPI-(Pen)+IPD-NH2 (peptide)
peptide: A[Cba]CSRS[tBuAla]PPI[Pen]IPD-NH2
modifications: disulfide 3-11; N-terminus assumed
SMILES: CC[C@H](C)[C@@H]1NC(=O)[C@@H]2CCCN2C(=O)[C@@H]2CCCN2C(=O)[C@H](CC(C)(C)C)NC(=O)[C@H](CO)NC(=O)[C@H](CCCNC(=N)N)NC(=O)[C@H](CO)NC(=O)[C@@H](NC(=O)[C@H](CC2CCC2)NC(=O)[C@H](C)N)CSSC(C)(C)[C@@H](C(=O)N[C@H](C(=O)N2CCC[C@H]2C(=O)N[C@@H](CC(=O)O)C(N)=O)[C@@H](C)CC)NC1=O
human MASP1 IC50 [1]: 2 nM
human MASP2 IC50 [2]: 24 nM

B7: ((N-Me)G)-IC+SRS-((tBu)A)-PPI-(Pen)+IP-((N-Me)G)-((N-Me)G)-((N-Me)G)-NH2 (peptide)
peptide: [Sar]ICSRS[tBuAla]PPI[Pen]IP[Sar][Sar][Sar]-NH2
modifications: disulfide 3-11; N-terminus assumed
SMILES: CC[C@H](C)[C@H](NC(=O)CNC)C(=O)N[C@H]1CSSC(C)(C)[C@@H](C(=O)N[C@H](C(=O)N2CCC[C@H]2C(=O)N(C)CC(=O)N(C)CC(=O)N(C)CC(N)=O)[C@@H](C)CC)NC(=O)[C@H]([C@@H](C)CC)NC(=O)[C@@H]2CCCN2C(=O)[C@@H]2CCCN2C(=O)[C@H](CC(C)(C)C)NC(=O)[C@H](CO)NC(=O)[C@H](CCCNC(=N)N)NC(=O)[C@H](CO)NC1=O
human MASP1 IC50 [1]: 2 nM
human MASP2 IC50 [2]: 47 nM

B8: ((N-Me)G)-IC+SRS-((tBu)A)-PPI-(Pen)+IPD-(Orn)-(Orn)-(Orn)-NH2 (peptide)
peptide: [Sar]ICSRS[tBuAla]PPI[Pen]IPD[Orn][Orn][Orn]-NH2
modifications: disulfide 3-11; N-terminus assumed
SMILES: CC[C@H](C)[C@H](NC(=O)CNC)C(=O)N[C@H]1CSSC(C)(C)[C@@H](C(=O)N[C@H](C(=O)N2CCC[C@H]2C(=O)N[C@@H](CC(=O)O)C(=O)N[C@@H](CCCN)C(=O)N[C@@H](CCCN)C(=O)N[C@@H](CCCN)C(N)=O)[C@@H](C)CC)NC(=O)[C@H]([C@@H](C)CC)NC(=O)[C@@H]2CCCN2C(=O)[C@@H]2CCCN2C(=O)[C@H](CC(C)(C)C)NC(=O)[C@H](CO)NC(=O)[C@H](CCCNC(=N)N)NC(=O)[C@H](CO)NC1=O
human MASP1 IC50 [1]: 2 nM
human MASP2 IC50 [2]: 130 nM

B9: ((N-Me)G)-IC+SRSLP-(Oic)-I-(Pen)+IPD-(PEG1(10 atoms))-NH2 (peptide)
peptide: [Sar]ICSRSLP[Oic]I[Pen]IPD[PEG2]-NH2
modifications: disulfide 3-11; N-terminus assumed
SMILES: CC[C@H](C)[C@H](NC(=O)CNC)C(=O)N[C@H]1CSSC(C)(C)[C@@H](C(=O)N[C@H](C(=O)N2CCC[C@H]2C(=O)N[C@@H](CC(=O)O)C(=O)NCCOCCOCCC(N)=O)[C@@H](C)CC)NC(=O)[C@H]([C@@H](C)CC)NC(=O)[C@@H]2C[C@@H]3CCCC[C@@H]3N2C(=O)[C@@H]2CCCN2C(=O)[C@H](CC(C)C)NC(=O)[C@H](CO)NC(=O)[C@H](CCCNC(=N)N)NC(=O)[C@H](CO)NC1=O
human MASP1 IC50 [1]: 0.93 nM
human MASP2 IC50 [2]: 68 nM

B10: ((N-Me)G)-IC+SRSL-((1S,2S,5R)-3-azabicyclo[3.1.0]hexane-2-carboxylic acid)-PI-(Pen)+IP-NH2 (peptide)
peptide: [Sar]ICSRSL[Pro(3S,4R-methano)]PI[Pen]IP-NH2
modifications: disulfide 3-11; N-terminus assumed
SMILES: CC[C@H](C)[C@H](NC(=O)CNC)C(=O)N[C@H]1CSSC(C)(C)[C@@H](C(=O)N[C@H](C(=O)N2CCC[C@H]2C(N)=O)[C@@H](C)CC)NC(=O)[C@H]([C@@H](C)CC)NC(=O)[C@@H]2CCCN2C(=O)[C@@H]2[C@H]3C[C@H]3CN2C(=O)[C@H](CC(C)C)NC(=O)[C@H](CO)NC(=O)[C@H](CCCNC(=N)N)NC(=O)[C@H](CO)NC1=O
human MASP1 IC50 [1]: 2.1 nM
human MASP2 IC50 [2]: 20 nM

B11: ((N-Me)G)-IC+SRSLP-(Oic)-I-(Pen)+IPD-(PEG2(13 atoms))-NH2 (peptide)
peptide: [Sar]ICSRSLP[Oic]I[Pen]IPD[PEG3]-NH2
modifications: disulfide 3-11; N-terminus assumed
SMILES: CC[C@H](C)[C@H](NC(=O)CNC)C(=O)N[C@H]1CSSC(C)(C)[C@@H](C(=O)N[C@H](C(=O)N2CCC[C@H]2C(=O)N[C@@H](CC(=O)O)C(=O)NCCOCCOCCOCCC(N)=O)[C@@H](C)CC)NC(=O)[C@H]([C@@H](C)CC)NC(=O)[C@@H]2C[C@@H]3CCCC[C@@H]3N2C(=O)[C@@H]2CCCN2C(=O)[C@H](CC(C)C)NC(=O)[C@H](CO)NC(=O)[C@H](CCCNC(=N)N)NC(=O)[C@H](CO)NC1=O
human MASP1 IC50 [1]: 2.1 nM
human MASP2 IC50 [2]: 96 nM

B12: IIC+SRS-((tBu)A)-PPI-(Pen)+IPD-NH2 (peptide)
peptide: IICSRS[tBuAla]PPI[Pen]IPD-NH2
modifications: disulfide 3-11; N-terminus assumed
SMILES: CC[C@H](C)[C@H](N)C(=O)N[C@H](C(=O)N[C@H]1CSSC(C)(C)[C@@H](C(=O)N[C@H](C(=O)N2CCC[C@H]2C(=O)N[C@@H](CC(=O)O)C(N)=O)[C@@H](C)CC)NC(=O)[C@H]([C@@H](C)CC)NC(=O)[C@@H]2CCCN2C(=O)[C@@H]2CCCN2C(=O)[C@H](CC(C)(C)C)NC(=O)[C@H](CO)NC(=O)[C@H](CCCNC(=N)N)NC(=O)[C@H](CO)NC1=O)[C@@H](C)CC
human MASP1 IC50 [1]: 2.1 nM
human MASP2 IC50 [2]: 72 nM

B13: LIC+SRS-((tBu)A)-PPI-((N-Me)C)+I-NH2 (peptide)
peptide: LICSRS[tBuAla]PPI[NMeC]I-NH2
modifications: disulfide 3-11; N-terminus assumed
SMILES: CC[C@H](C)[C@H](NC(=O)[C@@H]1CSSC[C@H](NC(=O)[C@@H](NC(=O)[C@@H](N)CC(C)C)[C@@H](C)CC)C(=O)N[C@@H](CO)C(=O)N[C@@H](CCCNC(=N)N)C(=O)N[C@@H](CO)C(=O)N[C@@H](CC(C)(C)C)C(=O)N2CCC[C@H]2C(=O)N2CCC[C@H]2C(=O)N[C@@H]([C@@H](C)CC)C(=O)N1C)C(N)=O
human MASP1 IC50 [1]: 2.2 nM
human MASP2 IC50 [2]: 98 nM
